# Measurements published in patent US20120083519.
# What was measured:
# [1] = tested on: C-mip protein (c-maf inducing protein), human, full-length
# [2] = tested on: T1, nephrin (co-expressed in HEK cells)
# T1 sequence: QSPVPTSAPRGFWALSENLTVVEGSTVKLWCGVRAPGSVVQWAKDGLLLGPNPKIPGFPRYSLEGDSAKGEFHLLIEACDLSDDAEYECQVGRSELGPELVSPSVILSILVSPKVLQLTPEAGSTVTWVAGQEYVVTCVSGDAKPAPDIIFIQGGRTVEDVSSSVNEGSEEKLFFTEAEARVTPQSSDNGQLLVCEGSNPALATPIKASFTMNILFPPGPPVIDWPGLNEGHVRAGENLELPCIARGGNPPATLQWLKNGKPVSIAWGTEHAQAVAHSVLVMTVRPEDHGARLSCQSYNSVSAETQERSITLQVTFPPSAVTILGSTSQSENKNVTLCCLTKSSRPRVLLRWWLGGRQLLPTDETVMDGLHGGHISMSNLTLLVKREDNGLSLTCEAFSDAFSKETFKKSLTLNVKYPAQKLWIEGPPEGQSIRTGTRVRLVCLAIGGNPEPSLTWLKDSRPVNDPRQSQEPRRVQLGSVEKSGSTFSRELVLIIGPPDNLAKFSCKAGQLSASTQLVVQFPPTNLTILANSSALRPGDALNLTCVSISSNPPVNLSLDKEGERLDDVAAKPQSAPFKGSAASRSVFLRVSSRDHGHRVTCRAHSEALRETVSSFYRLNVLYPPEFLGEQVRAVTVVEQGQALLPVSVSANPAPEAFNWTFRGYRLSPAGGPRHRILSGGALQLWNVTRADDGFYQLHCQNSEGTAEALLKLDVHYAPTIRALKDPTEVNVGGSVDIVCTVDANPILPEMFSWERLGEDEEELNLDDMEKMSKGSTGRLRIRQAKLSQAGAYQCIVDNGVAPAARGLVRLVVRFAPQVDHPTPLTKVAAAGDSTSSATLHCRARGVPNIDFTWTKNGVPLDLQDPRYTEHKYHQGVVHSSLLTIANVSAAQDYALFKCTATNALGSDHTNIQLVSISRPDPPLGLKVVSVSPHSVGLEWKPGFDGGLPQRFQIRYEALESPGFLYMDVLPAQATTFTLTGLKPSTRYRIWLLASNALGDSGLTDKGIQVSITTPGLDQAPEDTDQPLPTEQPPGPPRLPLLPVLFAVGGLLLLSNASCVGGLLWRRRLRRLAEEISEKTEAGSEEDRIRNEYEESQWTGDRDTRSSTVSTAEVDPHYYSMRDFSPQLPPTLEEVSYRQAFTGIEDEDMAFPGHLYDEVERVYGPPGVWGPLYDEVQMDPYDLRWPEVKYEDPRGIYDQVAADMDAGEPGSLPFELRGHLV
# C-mip protein (c-maf inducing protein), human, full-length, sequence (chain, as listed by the source): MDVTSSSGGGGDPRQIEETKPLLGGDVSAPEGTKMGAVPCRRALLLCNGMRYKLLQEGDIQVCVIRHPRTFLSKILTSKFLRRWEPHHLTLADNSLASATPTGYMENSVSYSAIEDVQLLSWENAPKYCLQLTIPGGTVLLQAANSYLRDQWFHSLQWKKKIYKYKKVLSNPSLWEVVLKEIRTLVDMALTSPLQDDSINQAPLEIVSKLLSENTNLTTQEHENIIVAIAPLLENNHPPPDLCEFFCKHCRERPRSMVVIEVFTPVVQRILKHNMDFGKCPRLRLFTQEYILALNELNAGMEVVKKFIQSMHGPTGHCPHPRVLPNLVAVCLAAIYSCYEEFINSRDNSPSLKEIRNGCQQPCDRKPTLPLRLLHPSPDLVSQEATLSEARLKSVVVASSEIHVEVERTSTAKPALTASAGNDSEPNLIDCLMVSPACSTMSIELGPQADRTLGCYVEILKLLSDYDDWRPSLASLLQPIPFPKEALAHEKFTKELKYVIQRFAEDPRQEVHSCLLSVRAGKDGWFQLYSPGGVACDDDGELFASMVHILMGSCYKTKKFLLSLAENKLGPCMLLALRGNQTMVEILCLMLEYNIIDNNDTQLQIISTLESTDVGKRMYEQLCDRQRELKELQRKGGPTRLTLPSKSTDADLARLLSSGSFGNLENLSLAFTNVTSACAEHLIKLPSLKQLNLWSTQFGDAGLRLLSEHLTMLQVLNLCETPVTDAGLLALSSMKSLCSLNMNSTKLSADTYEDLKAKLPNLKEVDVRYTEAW
substance,measurement,setting,value
Fyn (expressed from Fyn plasmid in HEK 293 cells),phosphorylation of nephrin by Fyn at Y1208,[1],co-expression of c-mip reduced the phosphorylation of nephrin by Fyn at this tyrosine residue
same,phosphorylation of nephrin at tyrosine residue Y1208,[2],Co-expression of nephrin and Fyn induced phosphorylation of nephrin at tyrosine residue Y1208
